Test results from US20100196375A1.

Target: BHV-1 virus (Cooper strain)
Experiment: cell-based or functional assay

Binder | 50% viral neutralization end point [µg/mL] | Percent plaque reduction at 24 µg/ml, Experiment I [%] | Percent plaque reduction at 24 µg/ml, Experiment II [%] | Percent plaque reduction at 72 µg/ml, Experiment I [%] | Percent plaque reduction at 72 µg/ml, Experiment II [%] | Percent plaque reduction at 216 µg/ml, Experiment I [%] | Percent plaque reduction at 216 µg/ml, Experiment II [%] | Percent Plaque reduction at 11 µg/ml, Experiment I [%] | Percent Plaque reduction at 11 µg/ml, Experiment II [%] | Percent Plaque reduction at 33 µg/ml, Experiment I [%] | Percent Plaque reduction at 33 µg/ml, Experiment II [%] | Percent Plaque reduction at 99 µg/ml, Experiment I [%] | Percent Plaque reduction at 99 µg/ml, Experiment II [%] | Percent Plaque reduction at 15 µg/ml, Experiment I [%] | Percent Plaque reduction at 15 µg/ml, Experiment II [%] | Percent Plaque reduction at 45 µg/ml, Experiment I [%] | Percent Plaque reduction at 45 µg/ml, Experiment II [%] | Percent Plaque reduction at 135 µg/ml, Experiment I [%] | Percent Plaque reduction at 135 µg/ml, Experiment II [%] | fold higher protein concentration required for virus neutralization, compared with wild type scFv with either 7 or 18 amino acid linker [fold]
recombinant scFv1-7L (scFv) scFv: QAVLTQPSSVSGSLGQRVSITCSGSSSNIGRYGVGWYQQVPGSGLRRIIYGSVSRPSGVPVRFSGSKSGDTATLTISSLQAEDEADYFCATADYTSSPVLFGSGTTLTVLGQSSRSSQVQLRESGPSLVKPSQTLSLTCTVSGFSLSGNSVGWVRQTPGKALEWLGNMDGIGTTDYNPALKSRLSITKDNSKSQVSLSLSSVTTEDTATYYCAKCTGAYCWRFDDAYGYDDWGQGLLVTVSS | 3 | 86.3 | 84.8 | 95.9 | 94.2 | 100 | 100 | – | – | – | – | – | – | – | – | – | – | – | – | –
recombinant scFv3-18L (scFv) scFv: QAVLTQPSSVSGSLGQRVSITCSGSSSNIGRYGVGWYQQVPGSGLRRIIYGSVSRPSGVPVRFSGSKSGDTATLTISSLQAEDEADYFCATADYTSSPVLFGSGTTLTVLGQSSRSSSGGGSSGGGGSQVQLRESGPSLVKPSQTLSLTCTVSGFSLSGNSVGWVRQTPGKALEWLGNMDGIGTTDYNPALKSRLSITKDNSKSQVSLSLSSVTTEDTATYYCAKCTGAYCWRFDDAYGYDDWGQGLLVTVSS | 5.5 | – | – | – | – | – | – | 78.7 | 80 | 89.3 | 90.5 | 93.4 | 94.7 | – | – | – | – | – | – | –
recombinant scFv4m-18L (scFv) scFv: QAVLTQPSSVSGSLGQRVSITCSGSSSNIGRYGVGWYQQVPGSGLRRIIYGSVSRPSGVPVRFSGSKSGDTATLTISSLQAEDEADYFCATADYTSSPVLFGSGTTLTVLGQSSRSSGGGGSSGGGGSQVQLRESGPSLVKPSQTLSLTCTVSGFSLSGNSVGWVRQTPGKALEWLGNMDGIGTTDYNPALKSRLSITKDNSKSQVSLSLSSVTTEGTATYYCAKCTGAYCWRFDDAYGYDDWGQGLLVTVSS | 15 | – | – | – | – | – | – | – | – | – | – | – | – | 55.8 | 48.5 | 67 | 70 | 92.4 | 92.6 | 2.7 to 5
